Results from patent publication US20250177531A1 (FRED HUTCHINSON CANCER CENTER, published 2025).
Blank lines part the entries; values can stand above or below the binder they belong to.

Experiments:
[1] = biological target: KRAS G12V 7-16 10mer peptide … presented by HLA-A*11:01 (human); assay: cell-based or functional assay
[2] = biological target: KRAS G12V 8-16 9mer peptide … presented by HLA-A*11:01 (human); assay: cell-based or functional assay
[3] = biological target: RAB7B peptide … presented by HLA-A*11:01 (human); assay: cell-based or functional assay
[4] = biological target: T1, KRAS G12V (same sequence in NRAS G12V and HRAS G12V) peptide on HLA-A*11:01 (human); assay: stated without data
T1 peptide: VVGAVGVGK

EC50, CD137 surface expression assay (functional avidity), TCR 11N4A in primary human CD8+ T cells [1]: 18.8 nM
EC50, CD137 surface expression assay (functional avidity), TCR 11N4A in primary human CD8+ T cells [2]: 0.0595 nM
percent of T cells responding (CD137), peptide titration [2]: > 80%
B1: TCR 11N4A (TCR)
TCR alpha: QQKNDDQQVKQNSPSLSVQEGRISILNCDYTNSMFDYFLWYKKYPAEGPTFLISISSIKDKNEDGRFTVFLNKSAKHLSLHIVPSQPGDSAVYFCAASGVSGNTPLVFGKGTRLSVIANIQNPDPAVYQLRDSKSSDKSVCLFTDFDSQTNVSQSKDSDVYITDKCVLDMRSMDFKSNSAVAWSNKSDFACANAFNNSIIPEDTFFPSPESSCDVKLVEKSFETDTNLNFQNLSVIGFRILLLKVAGFNLLMTLRLWSS
TCR beta: GVTQTPRYLIKTRGQQVTLSCSPISGHRSVSWYQQTPGQGLQFLFEYFSETQRNKGNFPGRFSGRQFSNSRSEMNVSTLELGDSALYLCASSVGTVEQYFGPGTRLTVTEDLKNVFPPEVAVFEPSEAEISHTQKATLVCLATGFYPDHVELSWWVNGKEVHSGVCTDPQPLKEQPALNDSRYCLSSRLRVSATFWQNPRNHFRCQVQFYGLSENDEWTQDRAKPVTQIVSAEAWGRADCGFTSESYQQGVLSATILYEILLGKATLYAVLVSALVLMAMVKRKDSRG

EC50, CD137 expression, sort-purified TCR 11N4A-transduced T cells, peptide titration [3]: ~35 µg/mL
B2: TCR 11N4A (TCR, V domains shown)
V domain 1: DQQVKQNSPSLSVQEGRISILNCDYTNSMFDYFLWYKKYPAEGPTFLISISSIKDKNEDGRFTVFLNKSAKHLSLHIVPSQPGDSAVYFCAASGVSGNTPLVFGKGTRLSVIA
V domain 2: GVTQTPRYLIKTRGQQVTLSCSPISGHRSVSWYQQTPGQGLQFLFEYFSETQRNKGNFPGRFSGRQFSNSRSEMNVSTLELGDSALYLCASSVGTVEQYFGPGTRLTVTE

binding result [4]: recognises
B3: TCR 11N6 (TCR, V domains shown)
Valpha: QQGEEDPQALSIQEGENATMNCSYKTSINNLQWYRQNSGRGLVHLILIRSNEREKHSGRLRVTLDTSKKSSSLLITASRAADTASYFCATDPMNTNAGKSTFGDGTTLTVKP
Vbeta: GVAQSPRYKIIEKRQSVAFWCNPISGHATLYWYQQILGQGPKLLIQFQNNGVVDDSQLPKDRFSAERLKGVDSTLKIQPAKLEDSAVYLCASSPYGGSVSYEQYFGPGTRLTVT
